Holding throughout (format): biochemical
The nature of data set [1]: Conversion of Hipp-Asp by purified HCPB mutants, 30 minutes, HPLC (Example 17). The settings on record: 0.5 mM substrate, 30 minutes at 37° C. The protocol: (§1) Purified mutants of human CPB (D253K; [G251K,D253R]; [G251N,D253R]; [I201S,D253K]; [G251N,D253K]; [Q54R,D145A,D253K]; [G251T,D253K]; [G251S,D253K]; [A248N,G251N,D253K]; [A248S,G251N,D253K] and [S205N,G251N,D253K]—described in Examples 3, 12, 13, 16, 28, 30, 31, 32 and 33) were assayed for their ability to convert hippuryl-L-glutamic acid (Hipp-Glu—Reference Example 1), hippuryl-L-aspartic acid (Hipp-Asp—Reference Example 2) and hippuryl-L-arginine (Sigma Chemical Company—cat no. H6625) to hippuric acid using a HPLC based assay similar to that described in Example 6.
(§2) Samples were incubated for 30 minutes at 37° C. The reactions were terminated by the addition of 500 μl of 40% methanol, 60% distilled water, 0.2% trifluoro acetic acid and the amount of hippuric acid generated was quantitated by HPLC as described in Example 6 but using a mobile phase of 20% methanol, 80% 50 mM phosphate buffer, pH 6.5. Hippuric acid was detected at 230 nm. The results are shown in Table 5 and are expressed as the percentage conversion of substrate into product in 30 minutes at 37° C.

Data set [2] can be described thus: Conversion of Hipp-Arg by purified HCPB mutants, 30 minutes, HPLC (Example 17). The settings on record: 0.5 mM substrate, 30 minutes at 37° C. The protocol:
as §1, §2

The nature of data set [3]: Conversion of Hipp-Glu by purified HCPB mutants, 30 minutes, HPLC (Example 17). As to conditions: 0.5 mM substrate, 30 minutes at 37° C. Here is the method:
as §1, §2

Data set [4] is described as follows: Conversion of Hipp-Asp by periplasmic shockate of HCPB mutants, 24 h (Example 18). The settings on record: shockate concentration in reaction mixture 50 %; 24 h at 37° C. The protocol: (§3) The activity of [G251T,D253K]HCPB was measured using the assay conditions described in Example 17 but using either 50 μl of a neat or 1 in 10 or 1 in 100 dilution of [G251T,D253K]HCPB crude E.coli periplasmic shockate (shockate) sample in place of purified enzyme. Samples were incubated for 24 h at 37° C. […] For other HCPB mutants, the reaction volume was 250 μl and contained 125 μl of neat shockate or 1 in 50 dilution of shockate. The shockate samples were prepared as described in Example 16. The amount of Hippuric acid produced in 24 h was quantified by HPLC as described in Example 17 and the results are shown in Table 6 and are expressed as the percentage conversion of substrate into product in 24 h at 37° C.

Data set [5] is described as follows: Conversion of Hipp-Glu by periplasmic shockate of HCPB mutants, 24 h (Example 18). As to conditions: 24 h at 37° C. Here is the method: as §3
Data set [6] is described as follows: Km and kcat of HCPB mutants with Hipp-Glu (Example 7). As to conditions: Hipp-Glu 0.25-8.0 mM; pH 7.5; 5 h at 37° C. Here is the method: Hipp-Glu and Hipp-Asp were diluted in range 0.25-8.0 mM and 0.25-5.0 mM respectively in 0.025 M Tris-HCL buffer, pH 7.5. Where necessary substrate samples were adjusted to pH 7.5 with 1M NaOH.
Samples were incubated for 5 h at 37° C. Reactions were terminated by the addition of 500 μl methanol/distilled water (80/20) containing 0.2% TFA. The amount of hippuric acid produced was quantified by HPLC as described in Example 6.
Km and Vmax values were calculated using the ENZFITTER software programme (Biosoft, Perkin Elmer).

Setting [7] is: shockate concentration in reaction mixture 1 %.
[8] abbreviates: shockate concentration in reaction mixture 50 %.

B1: [A248S,G251T,D253K]HCPB: HCPB mutant with A248S, G251T and D253K, (His)6-c-myc tag (protein, UniProt P15086 111-417, looked up, variant A248S G251T D253K)
Carboxypeptidase B: ATGHSYEKYNKWETIEAWTQQVATENPALISRSVIGTTFEGRAIYLLKVGKAGQNKPAIFMDCGFHAREWISPAFCQWFVREAVRTYGREIQVTELLDKLDFYVLPVLNIDGYIYTWTKSRFWRKTRSTHTGSSCIGTDPNRNFDAGWCEIGASRNPCDETYCGPAAESEKETKALADFIRNKLSSIKAYLTIHSYSQMMIYPYSYAYKLGENNAELNALAKATVKELASLHGTKYTYGPGATTIYPSAGTSKDWAYDQGIRYSFTFELRDTGRYGFLLPESQIRATCEETFLAIKYVASYVLEHLY
modifications: (His)6-c-myc tag
As usually defined, the Km is the substrate concentration at which the rate is half of its maximum. As for B1, the “Hipp-Asp (% conversion)” value amounted to 0% in data set [1] (enzyme 0.25 μg/ml), 5.5% in data set [1] (enzyme 25 μg/ml) and 0.5% in data set [4]. Moreover, the “Hipp-Arg (% conversion)” value in data set [2] (enzyme 0.25 μg/ml) and in data set [2] (enzyme 25 μg/ml) was 0% each time. Also, the “Hipp-Glu (% conversion)” value came out at 14.5% in data set [3] (enzyme 0.25 μg/ml), 93% in data set [3] (enzyme 25 μg/ml), 20% in data set [5] (setting [7]) and 91.3% in data set [5] (setting [8]). Also, the Km in data set [6] is 1.1 mM. Moreover, in data set [6], the “kcat, Hipp-Glu” value stood at 19 s⁻¹.

B2: [A248N, G251N, D253K]: HCPB mutant with A248N, G251N and D253K, (His)6-c-myc tag (protein, UniProt P15086 111-417, looked up, variant A248N G251N D253K)
Carboxypeptidase B: ATGHSYEKYNKWETIEAWTQQVATENPALISRSVIGTTFEGRAIYLLKVGKAGQNKPAIFMDCGFHAREWISPAFCQWFVREAVRTYGREIQVTELLDKLDFYVLPVLNIDGYIYTWTKSRFWRKTRSTHTGSSCIGTDPNRNFDAGWCEIGASRNPCDETYCGPAAESEKETKALADFIRNKLSSIKAYLTIHSYSQMMIYPYSYAYKLGENNAELNALAKATVKELASLHGTKYTYGPGATTIYPNAGNSKDWAYDQGIRYSFTFELRDTGRYGFLLPESQIRATCEETFLAIKYVASYVLEHLY
modifications: (His)6-c-myc tag
As for B2, the figures for the “Hipp-Asp (% conversion)” value in data set [1] (enzyme 0.25 μg/ml), in data set [1] (enzyme 25 μg/ml) and in data set [4] were 0.6%, 2.5% and 0%, respectively. Also, the “Hipp-Arg (% conversion)” value is given as 0% in data set [2] (enzyme 0.25 μg/ml) and 1.4% in data set [2] (enzyme 25 μg/ml). Also, the “Hipp-Glu (% conversion)” value in data set [3] (enzyme 0.25 μg/ml) came out at 25.3%; in data set [3] (enzyme 25 μg/ml), 100%; in data set [5] (setting [8]), 63.9%.

B3: [S205N, G251N, D253K]: HCPB mutant with S205N, G251N and D253K, (His)6-c-myc tag (protein, UniProt P15086 111-417, looked up, variant S205N G251N D253K)
Carboxypeptidase B: ATGHSYEKYNKWETIEAWTQQVATENPALISRSVIGTTFEGRAIYLLKVGKAGQNKPAIFMDCGFHAREWISPAFCQWFVREAVRTYGREIQVTELLDKLDFYVLPVLNIDGYIYTWTKSRFWRKTRSTHTGSSCIGTDPNRNFDAGWCEIGASRNPCDETYCGPAAESEKETKALADFIRNKLSSIKAYLTIHSYSQMMIYPYNYAYKLGENNAELNALAKATVKELASLHGTKYTYGPGATTIYPAAGNSKDWAYDQGIRYSFTFELRDTGRYGFLLPESQIRATCEETFLAIKYVASYVLEHLY
modifications: (His)6-c-myc tag
In the case of B3, the “Hipp-Asp (% conversion)” value is 0% in data set [1] (enzyme 0.5 μg/ml), 0.48% in data set [1] (enzyme 25 μg/ml) and 0% in data set [4]. The “Hipp-Arg (% conversion)” value was 0% in data set [2] (enzyme 0.5 μg/ml) and 0.2% in data set [2] (enzyme 25 μg/ml). The “Hipp-Glu (% conversion)” value in data set [3] (enzyme 0.5 μg/ml) was found to be 7.9%; in data set [3] (enzyme 25 μg/ml), 85%; in data set [5] (setting [8]) it was 14.1%.

B4: [G251N, D253K, T266G]: HCPB mutant with G251N, D253K and T266G, (His)6-c-myc tag (protein, UniProt P15086 111-417, looked up, variant G251N D253K T266G)
Carboxypeptidase B: ATGHSYEKYNKWETIEAWTQQVATENPALISRSVIGTTFEGRAIYLLKVGKAGQNKPAIFMDCGFHAREWISPAFCQWFVREAVRTYGREIQVTELLDKLDFYVLPVLNIDGYIYTWTKSRFWRKTRSTHTGSSCIGTDPNRNFDAGWCEIGASRNPCDETYCGPAAESEKETKALADFIRNKLSSIKAYLTIHSYSQMMIYPYSYAYKLGENNAELNALAKATVKELASLHGTKYTYGPGATTIYPAAGNSKDWAYDQGIRYSFGFELRDTGRYGFLLPESQIRATCEETFLAIKYVASYVLEHLY
modifications: (His)6-c-myc tag
As for B4, the “Hipp-Asp (% conversion)” value in data set [4] came to 3.4%. Further, the “Hipp-Glu (% conversion)” value in data set [5] (setting [8]) amounted to 0.95%.

B5: [A248N, G251T, D253K]: HCPB mutant with A248N, G251T and D253K, (His)6-c-myc tag (protein, UniProt P15086 111-417, looked up, variant A248N G251T D253K)
Carboxypeptidase B: ATGHSYEKYNKWETIEAWTQQVATENPALISRSVIGTTFEGRAIYLLKVGKAGQNKPAIFMDCGFHAREWISPAFCQWFVREAVRTYGREIQVTELLDKLDFYVLPVLNIDGYIYTWTKSRFWRKTRSTHTGSSCIGTDPNRNFDAGWCEIGASRNPCDETYCGPAAESEKETKALADFIRNKLSSIKAYLTIHSYSQMMIYPYSYAYKLGENNAELNALAKATVKELASLHGTKYTYGPGATTIYPNAGTSKDWAYDQGIRYSFTFELRDTGRYGFLLPESQIRATCEETFLAIKYVASYVLEHLY
modifications: (His)6-c-myc tag
Regarding B5, the “Hipp-Asp (% conversion)” value in data set [4] is given as 1%. The results for the “Hipp-Glu (% conversion)” value in data set [5] (setting [7]) and in data set [5] (setting [8]) were 53.5% and 95%, respectively.

B6: [A248S, G251N, D253K]: HCPB mutant with A248S, G251N and D253K, (His)6-c-myc tag (protein, UniProt P15086 111-417, looked up, variant A248S G251N D253K)
Carboxypeptidase B: ATGHSYEKYNKWETIEAWTQQVATENPALISRSVIGTTFEGRAIYLLKVGKAGQNKPAIFMDCGFHAREWISPAFCQWFVREAVRTYGREIQVTELLDKLDFYVLPVLNIDGYIYTWTKSRFWRKTRSTHTGSSCIGTDPNRNFDAGWCEIGASRNPCDETYCGPAAESEKETKALADFIRNKLSSIKAYLTIHSYSQMMIYPYSYAYKLGENNAELNALAKATVKELASLHGTKYTYGPGATTIYPSAGNSKDWAYDQGIRYSFTFELRDTGRYGFLLPESQIRATCEETFLAIKYVASYVLEHLY
modifications: (His)6-c-myc tag
With B6, the “Hipp-Asp (% conversion)” value was 0% in data set [1] (enzyme 0.5 μg/ml), 1.3% in data set [1] (enzyme 25 μg/ml) and 1% in data set [4]. In addition, the “Hipp-Arg (% conversion)” value in data set [2] (enzyme 0.5 μg/ml) and in data set [2] (enzyme 25 μg/ml) was 0% each time. The results for the “Hipp-Glu (% conversion)” value in data set [3] (enzyme 0.5 μg/ml), in data set [3] (enzyme 25 μg/ml) and in data set [5] (setting [8]) were 10.7%, 86% and 46.1%, respectively.

The values above are taken from patent US6436691B1, “Chemical compounds” (Zeneca Limited, priority 1995, dated 2002).
